Assay results: patent US20230279107A1 (ZHEJIANG RUIJIAMEI BIOTECH, published 2023)

Biological target: T1, CD19 expressed on Hela cells (stable cell line Hela-CD19) (human, UniProt P15391 20-556)
T1 sequence (looked up): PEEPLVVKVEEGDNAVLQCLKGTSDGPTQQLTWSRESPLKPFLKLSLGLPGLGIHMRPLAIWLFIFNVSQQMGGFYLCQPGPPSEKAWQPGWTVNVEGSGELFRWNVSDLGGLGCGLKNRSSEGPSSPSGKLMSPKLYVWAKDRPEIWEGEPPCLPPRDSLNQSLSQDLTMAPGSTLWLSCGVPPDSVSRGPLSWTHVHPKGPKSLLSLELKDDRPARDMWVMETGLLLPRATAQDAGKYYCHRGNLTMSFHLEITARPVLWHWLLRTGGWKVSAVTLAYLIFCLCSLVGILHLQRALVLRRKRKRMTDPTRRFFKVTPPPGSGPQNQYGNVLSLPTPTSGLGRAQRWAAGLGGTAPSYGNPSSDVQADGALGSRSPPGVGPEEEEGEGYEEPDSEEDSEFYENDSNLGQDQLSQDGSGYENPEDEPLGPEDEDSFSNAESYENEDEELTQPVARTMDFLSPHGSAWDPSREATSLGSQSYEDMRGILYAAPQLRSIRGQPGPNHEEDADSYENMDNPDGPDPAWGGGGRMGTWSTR
Assay: cell-based or functional assay

B1: Humanized CD19-4-1BB-CD3-CAR protein (CD8 leader sequence-CD19 scFv (VL-Linker-VH)-CD8 hinge-CD8 TM-41BB-CD3-zeta), expressed on DNT cells (other)
chain: DIQMTQSPSSLSASVGDRVTITCRASQDISKYLNWYQQKPGKAPKLLIYHTSRLHSGVPSRFSGSGSGTDFTLTISSLQPEDFATYYCQQGNTLPYTFGGGTKVEIKGSTSGSGKPGSGEGSTKGQVQLQESGPGLVKPSETLSLTCTVSGGSLPDYGVSWIRQPPGKGLEWIGVIWGSETTYYNSALKSRVTISVDTSKNQFSLKLSSVTAADTAVYYCAKHYYYGGSYAMDYWGQGTLVTVSSTTTPAPRPPTPAPTIASQPLSLRPEACRPAAGGAVHTRGLDFACDIYIWAPLAGTCGVLLLSLVITLYCKRGRKKLLYIFKQPFMRPVQTTQEEDGCSCRFPEEEEGGCELRVKFSRSADAPAYKQGQNQLYNELNLGRREEYDVLDKRRGRDPEMGGKPRRKNPQEGLYNELQKDKMAEAYSEIGMKGERRRGKGHDGLYQGLSTATKDTYDALHMQALPPR
  specific killing of Hela-CD19 by CAR19-DNT cells on day 8 of culture (RTCA, effector-target ratio 2:1, 18 h): 98.5%
  specific killing of Hela-CD19 by CAR19-DNT cells on day 13 of culture (RTCA, effector-target ratio 2:1, 18 h): 98.1%
